In patent publication US20210122805A1 (Bristol-Myers Squibb, published 2021):
Each block holds one molecule with its values, some of them ahead of it.

Experiments:
[1] = molecular target: VEGFR2 fusion protein (extracellular domain of hVEGFR2 and intracellular domain of hEpoR) on Ba/F3 cells (human) (UniProt P35968); assay: cell-based or functional assay
[2] = molecular target: T1, human PCSK9 (human, UniProt Q8NBP7 31-692); assay: SPR (Biacore), 10Fn3 protein or Fc fusion captured by anti-His or anti-human antibody, target in flow, 25 C, 1:1 fit
Procedure: (§1) The binding properties of Fc-¹⁰Fn3 fusion proteins and non-Fc ¹⁰Fn3 proteins were characterized by Surface Plasmon Resonance (SPR). Anti-human or anti-Histidine antibody was immobilized on a Biacore chip, and ¹⁰ Fn3 proteins and Fc-¹⁰Fn3 fusions were captured on the chip surface. Varying concentrations of target were placed into the flow solution using MgCl2 (3 M) for chip regeneration between cycles. Kinetic determinations were performed at 25° C. Evaluation of the kinetic parameters was performed using the 1:1 binding algorithm on the Biacore Evaluation software.

[3] = molecular target: T1, human PCSK9; assay: cell-based or functional assay
[4] = molecular target: T1, human PCSK9; assay: PCSK9:ATI-972 FRET assay, 5 nM human PCSK9; displaced competitor: biotinylated ATI-972
[5] = molecular target: T1, human PCSK9; assay: PCSK9:EGFA FRET competition assay, 5 nM PCSK9; competitor EGFA peptide
From the text: (§2) Two fluorescence resonance energy transfer (FRET) based assays were used to determine the competitive binding potency of PRD460 and other adnectins to hPCSK9. The PCSK9:EGFA FRET assay measures the binding of PCSK9 to the LDLR, using a soluble epidermal growth factor precursor homology domain-A (EGFA) peptide and recombinant human PCSK9.

[6] = molecular target: T1, human PCSK9; assay: PCSK9:ATI-972 FRET competition assay, 5 nM human PCSK9; competitor biotinylated ATI-972
From the text: as §2

[7] = molecular target: T1, human PCSK9; assay: SPR (Biacore), ATI-1081 captured by anti-His antibody, hPCSK9 in flow, 25 C, 1:1 fit
Procedure: The binding characteristics were characterized by Surface Plasmon Resonance (SPR). […] Varying concentrations of hPCSK9 were placed into the flow solution using MgCl2 (3 M) for chip regeneration between cycles. […] Duplicate experiments for PRD460 were performed on different days. Kinetic determinations were performed at 25° C. Evaluation of the kinetic parameters was performed using the 1:1 Binding algorithm on the Biacore Evaluation software.

[8] = molecular target: VEGFR2 (Homo sapiens (Human), UniProt P35968 20-764); assay: SPR (Biacore), 10Fn3 protein or Fc fusion captured by anti-His or anti-human antibody, target in flow, 25 C, 1:1 fit
Procedure: as §1

IC50 (nM), Ba/F3 proliferation assay [1]: 7.96 nM
Relative Potency, Ba/F3 proliferation assay [1]: 1
Molecule: CT322 (designed binder)

Kd [2]: 34.5 nM
koff [2]: 0.000396 s⁻¹
kon [2]: 11500 M⁻¹ s⁻¹
IC50, HepG2 depletion inhibition [3]: 13.2 nM
B1: 1784F03 (designed binder, from a related filing)
chain: MGVSDVPRDLEVVAATPTSLLISWRPPIHAYGYYRITYGETGGNSPVQEFTVPIVEGTATISGLKPGVDYTITVYAVEYTFKHSGYYHRPISINYRTEIDKPSQHHHHHH

Kd [2]: 22.2 nM
koff [2]: 0.000388 s⁻¹
kon [2]: 17500 M⁻¹ s⁻¹
IC50, HepG2 depletion inhibition [3]: 10.6 nM
B2: 1813E02 (designed binder, from a related filing)
chain: MGVSDVPRDLEVVAATPTSLLISWSPPANGYGYYRITYGETGGNSPVQEFTVPVGRGTATISGLKPGVDYTITVYAVEYTYKGSGYYHRPISINYRTEIDKPSQHHHHHH

IC50 (read off the curve) [4]: ~0.9 nM
EC50 [5]: 1.9 nM
EC50 of inhibition of PCSK9-AF647 intracellular fluorescence in HepG2 cells [3]: 10 nM
EC50 of inhibition of PCSK9-induced LDLR depletion from HepG2 cell surface (FACS) [3]: 8 nM
B3: ATI-1174 (designed binder)
chain: MGVSDVPRDLEVVAATPTSLLISWVPPSDDYGYYRITYGETGGNSPVQEFTVPIGKGTATISGLKPGVDYTITVYAVEFPWPHAGYYHRPISINYRTEIEKPCQ
modifications: pegylated (site and PEG size not stated)
notes: also called pegylated anti-PCSK9 Adnectin

Kd [2]: 6.7 nM
koff [2]: 0.000245 s⁻¹
kon [2]: 36500 M⁻¹ s⁻¹
EC50 [5]: 3.7 nM
EC50 [6]: 2.8 nM
EC50 of inhibition of PCSK9-induced LDLR depletion from HepG2 cell surface (FACS) [3]: 9 nM
Kd [7]: 6.7 nM
koff [7]: 0.000245 s⁻¹
kon [7]: 36500 M⁻¹ s⁻¹
B4: ATI-1081 (designed binder)
chain: MGVSDVPRDLEVVAATPTSLLISWVPPSDDYGYYRITYGETGGNSPVQEFTVPIGKGTATISGLKPGVDYTITVYAVEFPWPHAGYYHRPISINYRTEIDKPSQHHHHHH
notes: No Fc

Kd [8]: 11.5 nM
koff [8]: 0.000236 s⁻¹
kon [8]: 20500 M⁻¹ s⁻¹
B5: C7FL (designed binder)
chain: VSDVPRDLEVVAATPTSLLISWRHPHFPTRYYRITYGETGGNSPVQEFTVPLQPPTATISGLKPGVDYTITVYAVTDGRNGRLLSIPISINYRT
notes: No Fc; anti-VEGFR2 10Fn3; not shown: the N-terminal extension, C-terminal tail and His tag of the non-Fc C7FL protein, none of which is stated for it

EC50 [6]: 0.8 nM
B6: ATI-1114 (designed binder)
chain: MGVSDVPRDLEVVAATPTSLLISWVPPSDDYGYYRITYGETGGNSPVQEFTVPIGKGTATISGLKPGVDYTITVYAVEFPWPHAGYYHRPISINYRTGSGCHHHHHH
modifications: pegylated (site and PEG size not stated)
